Measurements reported in patent publication US8956612B2, “Peptide associated with rheumatic fever (PARF) and its use as a diagnostic marker” (Helmholtz-Zentrum für Infektionsforschung GmbH, priority 2006, dated 2015).

Tests used:
collagen IV [1] = experiment: Immunization of mice, anti-collagen IV antibody titer by ELISA; format: in vivo, BALB/c mice; settings: sera of immunized mice compared to the buffer control
Method: Pathogen free 8 week old female BALB/c mice were immunized intra-peritoneally with an emulsion of 25-30 μg recombinant purified protein in 50 μl PBS and 50 μl Freund's incomplete adjuvant per dose at day 1, 7 and 14. Control mice were injected with 50 μl PBS and 50 μl Freund's incomplete adjuvant per dose. At day 21, serum samples of each group were collected and tested in ELISA. To absorb FOG reactive antibodies, 10 μl serum pool was diluted 1:50 in PBS, and incubated for 1 h with 1 mg GST-FOGfl protein immobilized on glutathione sepharose 4B. Antibodies that bound to the affinity matrix were removed by centrifugation. The supernatant was subjected to ELISA analysis.
To determine anti-collagen CIV antibody titers, 96 well plates (Greiner, Frickenhausen, Germany) were coated over night at 4° C. with anti-human collagen IV rabbit polyclonal antibody (Progen, Heidelberg, Germany) diluted 1:100 in 0.1 M NaHCO3 (pH=9.6), blocked with 2% bovine serum albumin (BSA) in PBST and incubated with collagen IV (2 μg/ml in PBS) for 1 h at 37° C. […] After washing, bound antibodies were detected using suitable horseradish peroxidase coupled secondary anti-serum (goat anti-mouse IgG,M, Jackson Laboratories; rabbit anti-human IgG, A, M, Sigma-Aldrich) and 2,2-azino-di-[3-ethylbenzthiazoline sulfonate]diammonium salt (ABTS tablets, Boehringer, Mannheim, Germany) as substrate. […]

collagen IV [2] = target: T1, collagen IV (Homo sapiens, UniProt P02462+P08572); experiment: Surface plasmon resonance, FOG fragments on immobilized collagen IV; format: binding; settings: SPR; 12.5, 25, 50, 100 μg/ml
T1 construct: purchased Sigma; host or cells: human placenta (tissue-derived)
Method: Site directed mutagenesis was performed on the plasmid pGEX-6P-1-FOGfl that coded for the GST-FOGfl fusion protein. E. coli clones containing the plasmids with the desired substitutions were generated using the GeneTailor™ Site Directed Mutagenesis System (Invitrogen) following the manufacturers recommendations. The tagged proteins from E. coli lysates were bound to glutathione sepharose 4B (GE Healthcare) and eluted with 10 mM reduced L-glutathione (Sigma) in 50 mM TrisHCl (pH=8.0) after washing the matrix with PBS. Alternatively, for SPR measurements of FOG1-B and FOG1-A the GST-tag was removed by digesting the proteins with PreScission™ protease (GE Healthcare) while bound to the affinity matrix, which eluted the untagged FOG proteins.
Protein interactions were studied in a BIAcore 2000 system (BIAcore AB) using 10 mM HEPES, 100 mM NaCl, pH=7.4 as running buffer. A CM5 sensor chip was activated by a 4 min injection of 0.05M N-hydroxysuccinimid, 0.2 M N-ethyl-N-(3-dimethylaminopropyl)-carbodiimide hydrochloride in water. Collagen IV from human placenta (Sigma, 1 mg/ml in 0.1M NaAc) was diluted 1:25 in 10 mM NaAc (pH=5.2). Immediate injection of 3 μl at a flow rate of 5 μl/min lead to immobilization of 400 to 550 response units (RU) of collagen IV. Residual reactive groups were inactivated by 6 min injection of 1 M ethanolamine, 0.1 M NaHCO3, 0.5 M NaCl, 5 mM EDTA, pH=8.0. […]

T1 sequence (P02462 173-1669): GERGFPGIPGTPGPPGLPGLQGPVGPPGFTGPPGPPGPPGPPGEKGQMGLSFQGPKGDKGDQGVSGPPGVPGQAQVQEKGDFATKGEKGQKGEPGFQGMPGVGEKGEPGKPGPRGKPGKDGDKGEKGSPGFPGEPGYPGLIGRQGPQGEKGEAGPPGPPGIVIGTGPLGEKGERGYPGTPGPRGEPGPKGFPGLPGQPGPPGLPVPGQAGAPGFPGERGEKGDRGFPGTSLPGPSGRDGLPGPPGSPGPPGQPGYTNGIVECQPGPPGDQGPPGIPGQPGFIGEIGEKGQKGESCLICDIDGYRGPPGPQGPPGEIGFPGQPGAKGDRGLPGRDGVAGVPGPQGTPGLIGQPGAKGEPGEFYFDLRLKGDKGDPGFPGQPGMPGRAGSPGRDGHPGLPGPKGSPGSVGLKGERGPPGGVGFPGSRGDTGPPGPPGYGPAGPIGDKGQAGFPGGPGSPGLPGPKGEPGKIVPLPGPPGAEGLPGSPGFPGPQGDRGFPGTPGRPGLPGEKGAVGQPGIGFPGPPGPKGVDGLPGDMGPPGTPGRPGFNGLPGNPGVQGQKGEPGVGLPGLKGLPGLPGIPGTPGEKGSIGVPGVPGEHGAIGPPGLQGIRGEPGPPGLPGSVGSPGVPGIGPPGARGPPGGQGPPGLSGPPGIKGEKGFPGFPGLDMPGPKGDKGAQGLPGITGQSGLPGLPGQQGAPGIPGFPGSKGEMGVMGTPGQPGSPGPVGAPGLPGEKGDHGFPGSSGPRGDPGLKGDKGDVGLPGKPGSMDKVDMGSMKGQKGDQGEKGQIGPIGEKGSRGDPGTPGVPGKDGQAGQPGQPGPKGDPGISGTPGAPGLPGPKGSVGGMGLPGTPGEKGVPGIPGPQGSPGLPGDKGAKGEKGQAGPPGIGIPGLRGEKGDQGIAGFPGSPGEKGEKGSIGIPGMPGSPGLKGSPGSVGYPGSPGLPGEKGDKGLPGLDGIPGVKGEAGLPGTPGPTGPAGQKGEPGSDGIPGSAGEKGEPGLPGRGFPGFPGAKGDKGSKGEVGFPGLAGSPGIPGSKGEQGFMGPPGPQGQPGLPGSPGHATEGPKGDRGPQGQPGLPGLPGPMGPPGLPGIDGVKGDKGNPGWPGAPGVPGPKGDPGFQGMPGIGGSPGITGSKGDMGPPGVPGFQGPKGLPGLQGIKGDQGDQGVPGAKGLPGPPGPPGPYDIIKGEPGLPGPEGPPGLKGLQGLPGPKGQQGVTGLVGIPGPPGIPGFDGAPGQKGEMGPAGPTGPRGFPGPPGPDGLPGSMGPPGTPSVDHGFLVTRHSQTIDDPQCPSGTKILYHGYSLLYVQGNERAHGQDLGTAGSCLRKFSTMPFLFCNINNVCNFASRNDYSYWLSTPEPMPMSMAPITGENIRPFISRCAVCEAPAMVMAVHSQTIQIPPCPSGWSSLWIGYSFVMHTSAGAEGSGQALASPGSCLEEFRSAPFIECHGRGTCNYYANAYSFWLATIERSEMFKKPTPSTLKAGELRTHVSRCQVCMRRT
T1 sequence (P08572 184-1712): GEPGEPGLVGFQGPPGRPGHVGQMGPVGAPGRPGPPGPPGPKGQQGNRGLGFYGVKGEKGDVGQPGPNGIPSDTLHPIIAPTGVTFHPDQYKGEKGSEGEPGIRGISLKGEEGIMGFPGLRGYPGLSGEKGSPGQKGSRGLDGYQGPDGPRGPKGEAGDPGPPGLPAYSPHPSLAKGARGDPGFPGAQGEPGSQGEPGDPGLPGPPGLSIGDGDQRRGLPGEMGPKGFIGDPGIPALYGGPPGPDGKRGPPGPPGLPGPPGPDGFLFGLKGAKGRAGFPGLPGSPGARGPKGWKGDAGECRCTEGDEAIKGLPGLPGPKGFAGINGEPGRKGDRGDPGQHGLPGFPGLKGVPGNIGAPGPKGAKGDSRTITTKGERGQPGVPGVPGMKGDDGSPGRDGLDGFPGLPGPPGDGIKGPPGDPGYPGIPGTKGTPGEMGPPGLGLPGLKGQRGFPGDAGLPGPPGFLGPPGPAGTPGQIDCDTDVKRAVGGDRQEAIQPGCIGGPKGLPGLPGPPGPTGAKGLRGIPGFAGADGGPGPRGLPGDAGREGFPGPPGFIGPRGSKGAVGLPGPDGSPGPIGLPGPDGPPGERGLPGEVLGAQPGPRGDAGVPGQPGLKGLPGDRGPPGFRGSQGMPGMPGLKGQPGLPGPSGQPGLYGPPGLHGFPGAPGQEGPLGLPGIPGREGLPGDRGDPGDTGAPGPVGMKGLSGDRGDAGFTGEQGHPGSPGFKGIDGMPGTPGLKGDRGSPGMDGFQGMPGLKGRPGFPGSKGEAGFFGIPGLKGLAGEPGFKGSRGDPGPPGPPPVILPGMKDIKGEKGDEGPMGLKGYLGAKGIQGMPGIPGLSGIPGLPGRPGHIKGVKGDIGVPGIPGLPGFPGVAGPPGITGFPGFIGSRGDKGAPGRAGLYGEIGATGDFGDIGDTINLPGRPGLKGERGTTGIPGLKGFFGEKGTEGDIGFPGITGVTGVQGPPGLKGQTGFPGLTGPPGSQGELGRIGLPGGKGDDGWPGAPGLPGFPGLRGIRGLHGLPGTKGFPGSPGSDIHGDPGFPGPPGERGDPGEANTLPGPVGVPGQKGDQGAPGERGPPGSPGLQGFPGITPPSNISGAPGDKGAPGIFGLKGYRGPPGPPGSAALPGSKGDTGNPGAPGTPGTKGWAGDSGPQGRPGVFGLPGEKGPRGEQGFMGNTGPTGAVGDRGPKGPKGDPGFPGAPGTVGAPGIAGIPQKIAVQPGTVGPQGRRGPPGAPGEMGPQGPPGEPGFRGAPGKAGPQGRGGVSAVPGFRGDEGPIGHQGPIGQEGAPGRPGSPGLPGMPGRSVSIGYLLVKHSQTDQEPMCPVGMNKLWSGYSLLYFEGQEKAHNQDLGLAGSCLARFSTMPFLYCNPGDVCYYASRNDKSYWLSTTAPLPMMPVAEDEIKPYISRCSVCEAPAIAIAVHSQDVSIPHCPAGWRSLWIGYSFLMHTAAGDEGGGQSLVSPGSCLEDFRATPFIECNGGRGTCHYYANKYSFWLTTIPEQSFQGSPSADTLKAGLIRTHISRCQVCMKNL

B1: FOG1-A: recombinant protein, the first 134 amino acids of the mature FOG protein (protein, listed as Streptococcus sp.)
chain: DRWKAQTEEARTDKLIAGFANLDADVTNLGKMMDELQKLKDFSKQNNSIGEYARYLQKLNDQFQEYYEQVVGDDSRRVLAKELAKNTELNEKLSELSTTSQALAKELQEQKENYDLVK
titers of anti-collagen antibodies in ELISA (collagen IV [1]): Substantially higher titers
interaction with immobilized collagen IV (collagen IV [2]): concentration dependent interaction
